Starred links: 1 amine or outer side, 2 acyl side, 3 side chain; linkers in the order of their positions; H or OH if unused. Positions of bridges follow the written chain, without caps; N, C: chain ends. Non-standard residues stand in square brackets, D forms with d. No end group written: not given here. TATA = O=C(CC[*:1])N1CN(C(=O)CC[*:2])CN(C(=O)CC[*:3])C1; 2Nal = N[C@@H](Cc1ccc2ccccc2c1)C(=O)O; βAla = NCCC(=O)O; Sar = CNCC(=O)O

Broadly, the Ki is the dissociation constant of the complex between target and ligand, obtained from inhibition or displacement. The low end stands for a stronger hold on the target, the high end for a looser hold on the target.

B1: Bicycle Compound Number 23 (TATA scaffold), ETVCLPDSRCAYMNVCA (peptide)
peptide: ETVCLPDSRCAYMNVCA
modifications: linker 4-10-16 via TATA
B2: Bicycle Compound Number 51 (TATA scaffold), ACGFMGLVPCELYCADN (peptide)
peptide: ACGFMGLVPCELYCADN
modifications: linker 2-10-14 via TATA (inferred)
B3: Bicycle Compound Number 59 (TATA scaffold), ACPLVNPLCLMPGWGCA (peptide)
peptide: ACPLVNPLCLMPGWGCA
modifications: linker 2-9-16 via TATA (inferred)
B4: Bicycle Compound Number 36 (TATA scaffold), ACPDWGKYCAYPDTICA (peptide)
peptide: ACPDWGKYCAYPDTICA
modifications: linker 2-9-16 via TATA
B5: Bicycle Compound Number 34 (TATA scaffold), ACRGEWGYCAYPDTICA (peptide)
peptide: ACRGEWGYCAYPDTICA
modifications: linker 2-9-16 via TATA
B6: Bicycle Compound Number 41 (TATA scaffold), ACGFMGLVPCEVHCA (peptide)
peptide: ACGFMGLVPCEVHCA
modifications: linker 2-10-14 via TATA
B7: Bicycle Compound Number 74 (TATA scaffold), Ac-CPLVNPLCLHPGWTCLHG (peptide)
peptide: Ac-CPLVNPLCLHPGWTCLHG
modifications: linker 1-8-15 via TATA
B8: Bicycle Compound Number 18 (TATA scaffold), DLRCGGDPRCAYMNVCA (peptide)
peptide: DLRCGGDPRCAYMNVCA
modifications: linker 4-10-16 via TATA
B9: Bicycle Compound Number 38 (TATA scaffold), ACSSCWAYPDSVCA (peptide)
peptide: ACSSCWAYPDSVCA
modifications: linker 2-5-13 via TATA
B10: Bicycle Compound Number 25 (TATA scaffold), ACVPDRRCAFENVCVDH (peptide)
peptide: ACVPDRRCAFENVCVDH
modifications: linker 2-8-14 via TATA
B11: Bicycle Compound Number 58 (TATA scaffold), ACPLVNPLCLLDGWTCA (peptide)
peptide: ACPLVNPLCLLDGWTCA
modifications: linker 2-9-16 via TATA (inferred)
B12: Bicycle Compound Number 56 (TATA scaffold), ACPLVNPLCNLPGWTCA (peptide)
peptide: ACPLVNPLCNLPGWTCA
modifications: linker 2-9-16 via TATA (inferred)
B13: Bicycle Compound Number 21 (TATA scaffold), HSGCRPDPRCAYMNVCA (peptide)
peptide: HSGCRPDPRCAYMNVCA
modifications: linker 4-10-16 via TATA
B14: Bicycle Compound Number 39 (TATA scaffold), ACQSCWAYPDTYCA (peptide)
peptide: ACQSCWAYPDTYCA
modifications: linker 2-5-13 via TATA
B15: Bicycle Compound Number 64 (TATA scaffold), ACPLVNPLCLHPGWTCA (peptide)
peptide: ACPLVNPLCLHPGWTCA
modifications: linker 2-9-16 via TATA (inferred)
B16: Bicycle Compound Number 84 (TATA scaffold), ACPLVNPLCLEPGWTCA (peptide)
peptide: ACPLVNPLCLEPGWTCA
modifications: linker 2-9-16 via TATA
B17: Bicycle Compound Number 57 (TATA scaffold), ACPLVNPLCLVPGWSCA (peptide)
peptide: ACPLVNPLCLVPGWSCA
modifications: linker 2-9-16 via TATA (inferred)
B18: Bicycle Compound Number 53 (TATA scaffold), ACPMVNPLCLHPGWICA (peptide)
peptide: ACPMVNPLCLHPGWICA
modifications: linker 2-9-16 via TATA (inferred)
B19: Bicycle Compound Number 86 (TATA scaffold), ACPLVNPLCLHPGWSCA (peptide)
peptide: ACPLVNPLCLHPGWSCA
modifications: linker 2-9-16 via TATA
B20: Bicycle Compound Number 54 (TATA scaffold), ACPLVNPLCLHPGWICA (peptide)
peptide: ACPLVNPLCLHPGWICA
modifications: linker 2-9-16 via TATA (inferred)
B21: Bicycle Compound Number 82 (TATA scaffold), ACPLVNPLCLAPGWTCA (peptide)
peptide: ACPLVNPLCLAPGWTCA
modifications: linker 2-9-16 via TATA
B22: Bicycle Compound Number 55 (TATA scaffold), ACPLVNPLCLHPGWRCA (peptide)
peptide: ACPLVNPLCLHPGWRCA
modifications: linker 2-9-16 via TATA (inferred)
B23: Bicycle Compound Number 97 (TATA scaffold), ACPMVNPLCLHPGWTCA (peptide)
peptide: ACPMVNPLCLHPGWTCA
modifications: linker 2-9-16 via TATA
B24: Bicycle Compound Number 60 (TATA scaffold), ACPLVNPLCMIGNWTCA (peptide)
peptide: ACPLVNPLCMIGNWTCA
modifications: linker 2-9-16 via TATA (inferred)
B25: Bicycle Compound Number 49 (TATA scaffold), ACGFMGLEPCELYCAHT (peptide)
peptide: ACGFMGLEPCELYCAHT
modifications: linker 2-10-14 via TATA (inferred)
B26: Bicycle Compound Number 17 (TATA scaffold), (β-Ala)-Sar10-ACVPDRRCAYMNVC (peptide)
peptide: [βAla][Sar][Sar][Sar][Sar][Sar][Sar][Sar][Sar][Sar][Sar]ACVPDRRCAYMNVC
modifications: linker 13-19-25 via TATA
B27: Bicycle Compound Number 19 (TATA scaffold), SRPCVIDSRCAYMNVCA (peptide)
peptide: SRPCVIDSRCAYMNVCA
modifications: linker 4-10-16 via TATA
B28: Bicycle Compound Number 63 (TATA scaffold), ACPLVNPLCLYGSWKCA (peptide)
peptide: ACPLVNPLCLYGSWKCA
modifications: linker 2-9-16 via TATA (inferred)
B29: Bicycle Compound Number 20 (TATA scaffold), ESRCSPDARCAYMNVCA (peptide)
peptide: ESRCSPDARCAYMNVCA
modifications: linker 4-10-16 via TATA
B30: Bicycle Compound Number 47 (TATA scaffold), ACGFMGLEPCELFCMPK (peptide)
peptide: ACGFMGLEPCELFCMPK
modifications: linker 2-10-14 via TATA (inferred)
B31: Bicycle Compound Number 70 (TATA scaffold), RPACPLVNPLCLHPGWTCA (peptide)
peptide: RPACPLVNPLCLHPGWTCA
modifications: linker 4-11-18 via TATA
B32: Bicycle Compound Number 71 (TATA scaffold), RPPCPLVNPLCLHPGWTCA (peptide)
peptide: RPPCPLVNPLCLHPGWTCA
modifications: linker 4-11-18 via TATA
B33: Bicycle Compound Number 62 (TATA scaffold), ACPLVNPLCMMGGWKCA (peptide)
peptide: ACPLVNPLCMMGGWKCA
modifications: linker 2-9-16 via TATA (inferred)
B34: Bicycle Compound Number 16 (TATA scaffold), ACVPDRRCAYMNVCA (peptide)
peptide: ACVPDRRCAYMNVCA
modifications: linker 2-8-14 via TATA
B35: Bicycle Compound Number 75 (TATA scaffold), (β-Ala)-Sar10-ACPLVNPLCLHPGWTCLHG (peptide)
peptide: XXXXXXXXXXXACPLVNPLCLHPGWTCLHG
modifications: N-terminal (β-Ala)-Sar10; 3 Cys thioether-linked to TATA scaffold
B36: Bicycle Compound Number 27 (TATA scaffold), ACVPDRRCAFQDVCDHE (peptide)
peptide: ACVPDRRCAFQDVCDHE
modifications: linker 2-8-14 via TATA
B37: Bicycle Compound Number 61 (TATA scaffold), ACPLVNPLCLMTGWSCA (peptide)
peptide: ACPLVNPLCLMTGWSCA
modifications: linker 2-9-16 via TATA (inferred)
B38: Bicycle Compound Number 79 (TATA scaffold), ACPLVNPLCLHPG(2Nal)TCLHG (peptide)
peptide: ACPLVNPLCLHPG[2Nal]TCLHG
modifications: linker 2-9-16 via TATA
B39: Bicycle Compound Number 35 (TATA scaffold), ACRNWGMYCAYPDTICA (peptide)
peptide: ACRNWGMYCAYPDTICA
modifications: linker 2-9-16 via TATA
B40: Bicycle Compound Number 43 (TATA scaffold), ACGFMGLEPCVTYCA (peptide)
peptide: ACGFMGLEPCVTYCA
modifications: linker 2-10-14 via TATA
B41: Bicycle Compound Number 52 (TATA scaffold), ACPLVNPLCLTSGWKCA (peptide)
peptide: ACPLVNPLCLTSGWKCA
modifications: linker 2-9-16 via TATA (inferred)
B42: Bicycle Compound Number 33 (TATA scaffold), ACTKPTGFCAYPDTICA (peptide)
peptide: ACTKPTGFCAYPDTICA
modifications: linker 2-9-16 via TATA
B43: Bicycle Compound Number 45 (TATA scaffold), ACGFMGLVPCNVFCA (peptide)
peptide: ACGFMGLVPCNVFCA
modifications: linker 2-10-14 via TATA (inferred)
B44: Bicycle Compound Number 69 (TATA scaffold), Ac-A(HArg)DCPLVNPLCLHPGWTCA-Sar6-(D-K) (peptide)
peptide: AXDCPLVNPLCLHPGWTCAXXXXXXK
modifications: N-terminal acetyl; X2 = HArg (homoarginine); X at 20-25 = Sar; K26 = D-Lys; 3 Cys thioether-linked to TATA scaffold
B45: Bicycle Compound Number 46 (TATA scaffold), ACGFMGLEPCELFCA (peptide)
peptide: ACGFMGLEPCELFCA
modifications: linker 2-10-14 via TATA (inferred)
B46: Bicycle Compound Number 44 (TATA scaffold), ACGFMGLEPCELVCA (peptide)
peptide: ACGFMGLEPCELVCA
modifications: linker 2-10-14 via TATA
B47: Bicycle Compound Number 40 (TATA scaffold), ACGFMGLEPCETFCA (peptide)
peptide: ACGFMGLEPCETFCA
modifications: linker 2-10-14 via TATA
B48: Bicycle Compound Number 50 (TATA scaffold), ACGFMGLEPCEMYCA (peptide)
peptide: ACGFMGLEPCEMYCA
modifications: linker 2-10-14 via TATA (inferred)
B49: Bicycle Compound Number 42 (TATA scaffold), ACGFMGLEPCEMVCA (peptide)
peptide: ACGFMGLEPCEMVCA
modifications: linker 2-10-14 via TATA
B50: Bicycle Compound Number 81 (TATA scaffold), TPRCPLVNPLCLMPGWTCA (peptide)
peptide: TPRCPLVNPLCLMPGWTCA
modifications: linker 4-11-18 via TATA
B51: Bicycle Compound Number 28 (TATA scaffold), ACVPDRRCAFRDVCLTG (peptide)
peptide: ACVPDRRCAFRDVCLTG
modifications: linker 2-8-14 via TATA

In the test the target is T1, Human EphA2 (Ecto) (Human, UniProt P29317 24-537).
T1 construct: extracellular domain; in-house)
T1 sequence (P29317 24-537): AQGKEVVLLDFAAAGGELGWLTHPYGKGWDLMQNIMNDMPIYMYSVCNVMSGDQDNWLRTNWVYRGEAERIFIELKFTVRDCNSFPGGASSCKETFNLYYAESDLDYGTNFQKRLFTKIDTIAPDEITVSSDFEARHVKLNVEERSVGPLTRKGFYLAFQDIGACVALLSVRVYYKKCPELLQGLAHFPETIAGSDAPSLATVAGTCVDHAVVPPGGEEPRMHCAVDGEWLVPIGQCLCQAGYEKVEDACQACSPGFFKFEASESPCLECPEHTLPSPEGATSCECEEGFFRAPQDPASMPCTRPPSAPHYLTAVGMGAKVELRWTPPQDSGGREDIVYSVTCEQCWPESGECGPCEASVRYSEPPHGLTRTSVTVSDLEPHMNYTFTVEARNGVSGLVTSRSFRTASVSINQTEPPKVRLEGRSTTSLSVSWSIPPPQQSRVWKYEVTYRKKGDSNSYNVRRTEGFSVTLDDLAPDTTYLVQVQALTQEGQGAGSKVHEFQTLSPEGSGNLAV
The test is described as follows: FP competition; tracer Reference Compound C. On the procedure:
Peptides without a fluorescent tag were tested in competition with a peptide with a fluorescent tag and a known Kd (Table 2). Peptides were diluted to an appropriate concentration in assay buffer as described in the direct binding assay with a maximum of 5% DMSO, then serially diluted 1 in 2. […] Measurements were conducted as for the direct binding assay, however the gain was determined prior to the first measurement. Data analysis was in Systat Sigmaplot version 12.0 where the mP values were fit to a user defined cubic equation to generate a Ki value: […]
B1 displayed a Ki of 130 nM.
With B2 the figure was 84.4 nM; with B3, 114 nM; with B4, 160 nM.
B5: the Ki was determined as 348 nM.
For the molecule B6, affinity was put at a Ki of 155 nM.
B7 showed an inhibition constant Ki of 1.76 nM.
B8 displayed an inhibition constant (Ki) of 70.8 nM. Against the preceding molecule, the Ki is about 40-fold higher.
B9 yielded a Ki of 400 nM.
Turning to B10, the affinity corresponds to a Ki of 97.3 nM.
Turning to B11, the Ki amounted to 38.4 nM.
With B12 the figure was 184 nM.
The figure for B13 is 62.1 nM; for B14 it is 321 nM; for B15 it is 30 nM.
With B16, the Ki amounted to 53.9 nM.
As to B17, the inhibitory constant (Ki) was determined as 35.4 nM.
As for B18, the inhibitory constant (Ki) stood at 15.4 nM.
B19 displayed an inhibition constant Ki of 56.1 nM. This Ki lies about 3.6-fold higher than the previous one.
The figure for B20 is 15.2 nM; for B21 it is 46.2 nM; for B22 it is 20.6 nM.
The figure for B23 is 20 nM.
The molecule B24 yielded an inhibition constant Ki of 96.2 nM.
B25 yielded a Ki of 144 nM.
Molecule B26 showed a Ki of 85 nM. This Ki is about 1.7-fold lower than that of the molecule before.
In turn, B27 had a Ki of 94.8 nM.
Take B28: the inhibitory constant (Ki) stood at 59 nM.
B29: affinity was put at a Ki of 57 nM.
Take B30: the Ki was determined as 185 nM.
For the molecule B31, affinity was put at a Ki of 10.1 nM.
The figure for B32 is 11.1 nM.
With B33 the figure was 67.1 nM.
As to B34, the Ki was 70 nM. This Ki and that of the molecule before are within 1.5-fold of each other.
With B35, the Ki was 2.48 nM.
B36 had an inhibition constant (Ki) of 159 nM. Against the preceding molecule, the Ki is about 64-fold higher.
As for B37, the Ki turned out to be 242 nM.
In turn, B38 yielded a Ki of 162 nM.
B39 had a Ki of 282 nM. This Ki is about 1.7-fold higher than that of the molecule before.
For B40, the affinity, expressed as Ki, was 234 nM. The Ki values of the last two molecules are within 1.5-fold of each other.
Molecule B41 returned a Ki of 115 nM. This Ki lies about 2-fold lower than the previous one.
Turning to B42, the Ki is 268 nM.
In turn, B43 showed an inhibitory constant (Ki) of 142 nM.
The figure for B44 is 17.5 nM.
With B45 the figure was 81.7 nM; with B46, 127 nM.
The figure for B47 is 188 nM; for B48 it is 140 nM; for B49 it is 320 nM.
B50 showed an inhibition constant Ki of 9.8 nM.
Molecule B51 gave an inhibitory constant (Ki) of 1700 nM.

For the origin of these results see US11814447B2, “Peptide ligands for binding to EphA2” (BICYCLERD LIMITED, priority 2018, dated 2023).
